Ends that are not written are not given here. Peptide text beside a SMILES is read from it. * marks the point of attachment. Biotin = O=C1N[C@H]2[C@H](CS[C@H]2CCCCC(=O)*)N1
Tests used:
[1] = target: T1, PDZ protein (GST-PDZ fusion) (Homo sapiens, UniProt Q9C0E4); test: G' assay (10 uM PL peptide), results of TABLE 7 and TABLE 12; format: binding
T1 construct: made in house; host or cells: E. coli (DH5alpha, BL21 or JM109)
Method in brief: (§1)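 Biotin-PL peptide (N-term label), 10 uM vs GST-PDZ; protein 5 ug/ml by default. A450 nm binned: 1 = 0-1, 2 = 1-2, 3 = 2-3, 4 = 3-4, 5 = >4 on >2 repeats, 0 = no binding.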

[2] = target: T2, PDZ protein (GST-PDZ fusion) (Homo sapiens, UniProt Q96JY6); test: as above; format: binding; conditions: PDZ LIM-Mystique, PDZ Domain 1
T2 construct: made in house; host or cells: E. coli (DH5alpha, BL21 or JM109)
T2 sequence (Q96JY6 1-352): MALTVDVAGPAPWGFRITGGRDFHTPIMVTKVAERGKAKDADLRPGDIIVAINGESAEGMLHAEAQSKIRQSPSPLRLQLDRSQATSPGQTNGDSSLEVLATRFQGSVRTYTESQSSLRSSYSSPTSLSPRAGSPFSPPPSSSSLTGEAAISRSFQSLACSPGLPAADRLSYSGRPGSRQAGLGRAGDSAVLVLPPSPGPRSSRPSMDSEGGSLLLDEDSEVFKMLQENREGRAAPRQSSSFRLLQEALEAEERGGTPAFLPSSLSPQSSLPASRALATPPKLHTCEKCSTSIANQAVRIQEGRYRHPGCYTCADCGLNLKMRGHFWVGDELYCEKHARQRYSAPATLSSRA
Method in brief: as §1

T1 sequence (Q9C0E4 whole entry, the tested form may be a part): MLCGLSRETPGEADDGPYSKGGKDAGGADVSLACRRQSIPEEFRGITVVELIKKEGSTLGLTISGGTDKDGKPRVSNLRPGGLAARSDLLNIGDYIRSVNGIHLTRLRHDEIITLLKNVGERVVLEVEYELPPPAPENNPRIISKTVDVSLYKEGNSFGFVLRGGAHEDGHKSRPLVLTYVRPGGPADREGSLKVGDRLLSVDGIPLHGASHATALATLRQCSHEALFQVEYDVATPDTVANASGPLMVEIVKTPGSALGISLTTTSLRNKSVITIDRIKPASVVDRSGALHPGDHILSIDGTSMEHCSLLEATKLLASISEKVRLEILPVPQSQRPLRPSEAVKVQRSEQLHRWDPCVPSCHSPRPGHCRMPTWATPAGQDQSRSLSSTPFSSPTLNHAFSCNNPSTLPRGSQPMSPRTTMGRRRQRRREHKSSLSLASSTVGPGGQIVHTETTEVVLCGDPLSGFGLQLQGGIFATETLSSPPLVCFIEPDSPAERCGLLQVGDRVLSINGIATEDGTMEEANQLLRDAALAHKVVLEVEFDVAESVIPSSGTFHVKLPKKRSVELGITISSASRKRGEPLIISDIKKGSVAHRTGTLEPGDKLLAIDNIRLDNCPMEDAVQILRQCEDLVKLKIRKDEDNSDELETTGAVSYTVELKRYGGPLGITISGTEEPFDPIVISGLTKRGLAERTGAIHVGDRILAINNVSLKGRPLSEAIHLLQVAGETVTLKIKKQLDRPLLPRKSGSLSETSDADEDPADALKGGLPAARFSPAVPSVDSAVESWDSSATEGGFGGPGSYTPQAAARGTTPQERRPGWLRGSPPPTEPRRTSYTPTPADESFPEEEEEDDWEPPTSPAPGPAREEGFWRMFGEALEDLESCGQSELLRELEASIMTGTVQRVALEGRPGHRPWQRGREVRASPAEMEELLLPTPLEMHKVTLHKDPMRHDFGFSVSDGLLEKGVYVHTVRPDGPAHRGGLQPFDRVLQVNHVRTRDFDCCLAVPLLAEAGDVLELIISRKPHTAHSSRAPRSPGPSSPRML

| Molecule | Classification ([1]; PDZ KIAA1719, PDZ Domain 6) | Classification [2] | Classification ([1]; PDZ KIAA1719, PDZ Domain 5) | Classification ([1]; PDZ KIAA1719, PDZ Domain 4) |
| --- | --- | --- | --- | --- |
| ELLQFCRTPNPALKNGQYWV (Biotin-ELLQFCRTPNPALKNGQYWV) | 5 (A450 nm of 4 more than 2× repeated) | 2 (A450 nm 1-2) | – | – |
| CSCC[C@H](NC(=O)[C@H](C)NC(=O)[C@H](CCCNC(=N)N)NC(=O)CNC(=O)[C@@H](NC(=O)[C@H](Cc1c[nH]c2ccccc12)NC(=O)[C@H](CCCNC(=N)N)NC(=O)CNC(=O)CCCC[C@@H]1SC[C@@H]2NC(=O)N[C@@H]21)[C@@H](C)O)C(=O)N[C@@H](CO)C(=O)N[C@@H](C)C(=O)N[C@@H](Cc1c[nH]c2ccccc12)C(=O)N[C@@H](CCCCN)C(=O)N1CCC[C@H]1C(=O)N[C@H](C(=O)N[C@@H](CCCNC(=N)N)C(=O)N[C@@H](CCCNC(=N)N)C(=O)N[C@@H](CCC(=O)O)C(=O)N[C@H](C(=O)N[C@@H](CCC(=O)O)C(=O)N[C@H](C(=O)O)C(C)C)[C@@H](C)O)[C@@H](C)O [HPV E6 #35 (modified)] (Biotin-GRWTGRAMSAWKPTRRETEV-OH; C-terminus assumed) | – | 1 (A450 nm 0-1) | 1 (A450 nm 0-1) | – |
| A2AA_HUMAN (modified) (Biotin-HDFRRAFKKILARGDRKRIV; not fully specified) | – | 1 (A450 nm 0-1) | – | 3 (A450 nm 2-3) |
| CC[C@H](C)[C@H](NC(=O)[C@H](CCC(N)=O)NC(=O)CCCC[C@@H]1SC[C@@H]2NC(=O)N[C@@H]21)C(=O)N[C@@H](CO)C(=O)N1CCC[C@H]1C(=O)NCC(=O)NCC(=O)N[C@@H](CC(C)C)C(=O)N[C@@H](CCC(=O)O)C(=O)N1CCC[C@H]1C(=O)N1CCC[C@H]1C(=O)N[C@@H](CO)C(=O)N[C@@H](CCC(=O)O)C(=O)N[C@@H](CCCCN)C(=O)N[C@@H](Cc1c[nH]cn1)C(=O)N[C@@H](Cc1ccccc1)C(=O)N[C@@H](CCCNC(=N)N)C(=O)N[C@@H](CCC(=O)O)C(=O)N[C@H](C(=O)N[C@@H](CCC(=O)O)C(=O)N[C@H](C(=O)O)C(C)C)[C@@H](C)O [Tax] | – | 1 (A450 nm 0-1) | – | – |
| PYSELNYETSHYPASPDSWV (Biotin-PYSELNYETSHYPASPDSWV) [catenin - delta 2] | – | 5 (A450 nm of 4 more than 2× repeated) | – | – |

Source: patent US20050282743A1, “Molecular interactions in cells” (Arbor Vita Corporation, priority 2001, published 2005)
